Measurements as given in patent US20100055095A1 (Genentech, published 2010).

How the values were obtained:
Experiment in all cases: co-immunoprecipitation from transfected Cos 7 cells on HA beads, western blot with anti-HA and anti-p110α
[1] = molecular target: T1, p110α, wild-type (protein encoded by PIK3CA, catalytic subunit of PI3K) (human, UniProt P42336 1-1068)
T1 construct: also called p110alpha WT
From the text: (§1) Proteins were immunoprecipitated using HA beads, separated by SDS-PAGE, transferred to nitrocellulose, and detected using anti-HA and anti-p110α antibodies. […] In the header row of Table 2, the terms “p110alpha E545K” and “p110alpha H1047R” refer to two known mutational “hot spots” in p110α which result in constitutively active p110α.

p110α H1047R = molecular target: T2, p110α H1047R (human, UniProt P42336 1-1068)
T2 construct: Known hot-spot mutant, constitutively active p110α; also called p110alpha H1047R
T2 sequence (P42336 whole entry H1047R): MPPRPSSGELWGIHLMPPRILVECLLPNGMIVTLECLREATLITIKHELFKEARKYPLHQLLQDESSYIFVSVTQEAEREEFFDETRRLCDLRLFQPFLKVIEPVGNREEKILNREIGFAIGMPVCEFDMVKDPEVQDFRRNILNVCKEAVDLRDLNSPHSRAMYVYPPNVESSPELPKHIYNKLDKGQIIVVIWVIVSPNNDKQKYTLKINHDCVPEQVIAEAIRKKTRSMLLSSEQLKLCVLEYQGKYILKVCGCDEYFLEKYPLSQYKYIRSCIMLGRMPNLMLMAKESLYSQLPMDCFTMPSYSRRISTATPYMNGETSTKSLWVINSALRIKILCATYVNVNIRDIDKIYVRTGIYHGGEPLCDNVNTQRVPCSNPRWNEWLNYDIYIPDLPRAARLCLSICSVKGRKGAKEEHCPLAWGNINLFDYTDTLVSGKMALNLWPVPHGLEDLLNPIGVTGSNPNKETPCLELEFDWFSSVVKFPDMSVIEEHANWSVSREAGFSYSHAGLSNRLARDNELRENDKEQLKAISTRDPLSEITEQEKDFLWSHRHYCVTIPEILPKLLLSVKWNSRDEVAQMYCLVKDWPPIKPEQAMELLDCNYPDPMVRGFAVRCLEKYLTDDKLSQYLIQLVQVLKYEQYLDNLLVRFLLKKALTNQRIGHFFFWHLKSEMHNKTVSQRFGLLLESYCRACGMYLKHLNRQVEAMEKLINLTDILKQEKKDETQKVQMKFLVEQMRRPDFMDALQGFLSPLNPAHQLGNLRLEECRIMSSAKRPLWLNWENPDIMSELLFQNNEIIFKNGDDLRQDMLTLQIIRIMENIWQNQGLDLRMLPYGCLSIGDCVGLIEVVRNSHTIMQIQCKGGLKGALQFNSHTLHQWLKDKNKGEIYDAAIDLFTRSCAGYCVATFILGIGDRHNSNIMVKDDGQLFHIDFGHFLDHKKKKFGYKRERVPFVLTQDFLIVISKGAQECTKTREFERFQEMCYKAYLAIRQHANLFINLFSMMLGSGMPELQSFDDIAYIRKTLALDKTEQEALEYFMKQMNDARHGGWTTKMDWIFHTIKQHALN
From the text: as §1

p110α E545K = molecular target: T3, p110α E545K (human, UniProt P42336 1-1068)
T3 construct: Known hot-spot mutant, constitutively active p110α; also called p110alpha E545K
T3 sequence (P42336 whole entry E545K): as the sequence (P42336 whole entry H1047R) above, with E545K, R1047H counted along it
From the text: as §1

Measured: binding result

T1 sequence (P42336 whole entry): as the sequence (P42336 whole entry H1047R) above, with R1047H counted along it

B1: N-terminally HA-tagged p85α R162stop (other)
chain: MSAEGYQYRALYDYKKEREEDIDLHLGDILTVNKGSLVALGFSDGQEARPEEIGWLNGYNETTGERGDFPGTYVEYIGRKKISPPTPKPRPPRPLPVAPGSSKTEADVEQQALTLPDLAEQFAPPDIAPPLLIKLVEAIEKKGLECSTLYRTQSSSNLAEL
notes: Stop codon at R162; also called p85 R162stop; 162R>O; not shown: N-terminal HA tag
no binding: [1] | p110α H1047R | p110α E545K
